Source: the supplement of paper PMC9732359
± gives the uncertainty stated by the source.

Experiment: protein stability index of a GFP-peptide fusion (yeast GPS) (PSI 1-4); higher = more stable; sorted into four equal gates, so the index is relative within each strain
In short: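 For each peptide, the protein stability index sums the read frequency in every gate after multiplying it by the gate number. Read frequencies came from plasmids that were PCR-amplified from each gate and Illumina-sequenced, with reads assigned to strains by barcodes. The gates were four equal bins of GFP/Cherry fluorescence ratio applied to mid-log yeast in leucine-free medium carrying a pooled library of tiled 17-residue yeast protein peptides fused downstream of GFP on a Cherry-expressing plasmid.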

| Sequence | protein stability index (doa10∆) | protein stability index (pdr5∆) | protein stability index (san1∆) | protein stability index (ubr1∆) |
| --- | --- | --- | --- | --- |
| LQNIVMDCTKEEEATMT [YIL149C/MLP2] | 3.4 ± 0.12 | 3.3 ± 0.1 | 3.31 ± 0.086 | 2.98 ± 0.089 |
| LDNFETKTEALLSDVVS [YJL041W/NSP1] | 2.4 ± 0.054 | 2.72 ± 0.069 | 2.35 ± 0.063 | 2.12 ± 0.059 |
| VLRRLLAKYRDAGKIDK [RPL19A] | 3.29 ± 0.18 | 3.37 ± 0.15 |  | 3.61 ± 0.093 |
| NIWLNNKIINWEISNPD [NUT1] | 2.48 ± 0.076 | 2.56 ± 0.057 | 2.71 ± 0.11 | 2.56 ± 0.077 |
| EKPLVVPVKLEEIKTVD [RRP6] | 2.52 ± 0.13 | 2.42 ± 0.07 | 2.76 ± 0.16 | 2.38 ± 0.068 |
| VFNNGIVVLVPKFGVEG [DIS3] | 2.22 ± 0.073 | 2.24 ± 0.072 | 2.27 ± 0.074 | 2.32 ± 0.053 |
| TKYTDDMATGSNDTTAF [SRB8] | 3.04 ± 0.086 | 3.14 ± 0.087 | 3.45 ± 0.057 | 3.29 ± 0.058 |
| PVMADLNGGLQFVPELK [FAS2] | 1.78 ± 0.069 | 2.19 ± 0.076 | 2.07 ± 0.077 | 2.01 ± 0.056 |
| YALAAKDRFDIDEKSQF [RPN2] | 1.73 ± 0.09 | 2.1 ± 0.13 | 1.93 ± 0.17 | 2.66 ± 0.082 |
| QFIYAGKKASLNVGNVL [RPL2A] | 2.59 ± 0.092 | 2.81 ± 0.11 | 2.86 ± 0.11 | 2.8 ± 0.092 |
| ILRRQAILRQQQQMANN [GAL11] | 2.49 ± 0.15 | 3.02 ± 0.16 | 2.62 ± 0.18 | 2.65 ± 0.13 |
| SKKAEKTGTKPAAVFTE [RPL4A] | 2.52 ± 0.068 | 2.79 ± 0.085 | 2.44 ± 0.072 | 2.76 ± 0.061 |
| MKYDIFAKFIHHIHHFE [IRR1] | 2.03 ± 0.079 | 2.54 ± 0.055 | 2.46 ± 0.065 | 2.74 ± 0.05 |
| KLTRELEKKFPDRHVIF [RPS7B] | 2.75 ± 0.058 | 2.94 ± 0.049 | 2.99 ± 0.04 | 3.14 ± 0.033 |
| IDSPELLSLISTTAALQ [RPN7] | 2.23 ± 0.04 | 2.65 ± 0.041 | 2.32 ± 0.041 | 2.45 ± 0.032 |
| AAATFPIAQPATDVEAR [RPL13A] | 2.65 ± 0.05 | 2.38 ± 0.042 | 2.71 ± 0.066 | 2.29 ± 0.04 |
| KHEDLSLEQRQEVTKFA [RPN4] | 2.85 ± 0.15 | 3.05 ± 0.23 | 2.84 ± 0.1 |  |
| PGGASGLGVLTHRNKDG [FAS1] | 3.35 ± 0.067 | 2.74 ± 0.081 | 3.24 ± 0.076 | 3.44 ± 0.069 |
| DPDTKKVKESPANDQAS [YIL149C/MLP2] | 3.04 ± 0.084 | 3.21 ± 0.078 | 3.06 ± 0.049 | 3.12 ± 0.093 |
| DIGVLEEYARRLAEFKR [SMC4] | 3.13 ± 0.12 | 3.38 ± 0.11 | 2.74 ± 0.096 | 3.35 ± 0.077 |
| LTIGVKFFMKHGLILEL [SRB5] | 1.71 ± 0.05 | 1.62 ± 0.052 | 1.65 ± 0.062 | 1.94 ± 0.033 |
| AIKYGYEDSGSTYKHDR [SRB4] | 3.22 ± 0.17 |  | 3.43 ± 0.14 | 3.15 ± 0.14 |
| LSTLEPSTSITLAERQQ [RPN9] | 2.9 ± 0.055 | 2.91 ± 0.058 | 2.58 ± 0.062 | 2.86 ± 0.036 |
| FQDVYDLTGSEPIKEII [FAS1] | 2.78 ± 0.25 | 3.02 ± 0.081 |  | 3.22 ± 0.1 |
| TVLQKNSLLLDSTPEEV [YML103C/NUP188] | 2 ± 0.052 | 2.28 ± 0.063 | 1.38 ± 0.079 | 1.42 ± 0.049 |
| SYEYYNIKHKHTSIRET [SMC2] | 1.61 ± 0.047 | 1.83 ± 0.066 | 1.67 ± 0.11 | 1.87 ± 0.049 |

| Sequence | protein stability index (doa10∆) | protein stability index (pdr5∆) | protein stability index (san1∆) | protein stability index (ubr1∆) |
| --- | --- | --- | --- | --- |
| REQASKSKKSWLNRLNN [YMR153W/NUP53] | 2.31 ± 0.11 | 2.45 ± 0.099 | 1.62 ± 0.15 | 2.92 ± 0.063 |
| GESARRFQKCFPPGVIG [RPC40] | 2.24 ± 0.1 | 2.34 ± 0.18 |  | 2.83 ± 0.12 |
| GEGERFTVDKKIAERSL [SKP1] | 3.44 ± 0.12 | 3.38 ± 0.12 | 3.36 ± 0.12 | 3.37 ± 0.24 |
| MISEVPSVAAEYVYFFN [RPC40] | 1.53 ± 0.11 | 1.13 ± 0.091 | 1.23 ± 0.11 | 1.07 ± 0.079 |
| FDKLLNIPRRELKINLP [SRB4] | 2.57 ± 0.074 | 2.6 ± 0.053 | 2.74 ± 0.071 | 2.12 ± 0.061 |
| LITTNSVEEVILERAYK [SNF2] | 2.37 ± 0.092 | 1.85 ± 0.063 | 2.18 ± 0.09 | 1.95 ± 0.031 |
| PLSVATELMNRSPLVTP [SRP72] | 2.14 ± 0.068 | 2.48 ± 0.069 | 2.4 ± 0.06 | 2.03 ± 0.06 |
| ILKSPHLSKSPADRPQG [SIR4] | 2.43 ± 0.074 | 2.51 ± 0.058 | 2.33 ± 0.056 | 2.37 ± 0.045 |
| VTFSFFNPQDTEENIKG [RRP45] | 2.15 ± 0.081 | 2.55 ± 0.08 | 3.08 ± 0.08 | 3.19 ± 0.076 |
| TIVSNVEEKPGDRGALA [RPL2A] | 3.16 ± 0.095 | 3.1 ± 0.075 | 3.37 ± 0.058 | 3.4 ± 0.12 |
| NIAQMIPGMSNMMNQVG [SRP54] | 2.47 ± 0.064 | 2.6 ± 0.076 | 2.67 ± 0.06 | 2.7 ± 0.078 |
| RKIEFPSLRDRRERRLI [RPT3] | 3.31 ± 0.052 | 3.34 ± 0.086 | 2.68 ± 0.066 | 3.32 ± 0.042 |
| FEYCRIDGSTSHEERIE [ISW2] | 2.44 ± 0.047 | 2.23 ± 0.052 | 2.01 ± 0.061 | 2.49 ± 0.05 |
| KEPKKLLPNSKNVENTK [DSN1] | 3.12 ± 0.17 | 2.74 ± 0.15 | 2.59 ± 0.14 | 3.21 ± 0.083 |
| GAFDQLKQNAIRARIPF [SRP54] | 2.69 ± 0.063 | 2.89 ± 0.06 | 2.9 ± 0.057 | 3.03 ± 0.07 |
| YNYCVNKSRSSGHFSTD [CDC53] | 2.8 ± 0.056 | 2.54 ± 0.046 | 2.23 ± 0.049 | 2.54 ± 0.036 |
| EANGATSFDRTKKTITP [RPL3] | 3.12 ± 0.15 | 2.91 ± 0.15 | 2.74 ± 0.12 | 3.17 ± 0.27 |
| GSAEFNVKYRAVVFKPF [RPB7] | 2.81 ± 0.14 | 1.85 ± 0.11 | 2.46 ± 0.1 | 2.85 ± 0.17 |
| VNLENPIPIAVLDSYTP [FAS1] | 1.42 ± 0.046 | 1.7 ± 0.036 | 1.69 ± 0.071 | 1.42 ± 0.027 |
| WKSPEWIQVFGLRTENV [MED6] | 2.14 ± 0.084 | 2.22 ± 0.058 | 2 ± 0.13 | 2.35 ± 0.072 |
| NNLHELWALLNFLLPDI [ISW2] | 2.59 ± 0.052 | 2.07 ± 0.049 | 1.89 ± 0.07 | 2.63 ± 0.041 |
| DEGTALSRLGLKRYCCR [RPB10] | 3.38 ± 0.11 | 3.23 ± 0.15 | 3.53 ± 0.079 | 2.79 ± 0.12 |
| DDPVPTPPAIEHKPVSP [SSN2] | 2.63 ± 0.14 | 2.59 ± 0.26 | 2.72 ± 0.29 | 2.49 ± 0.16 |
| AQQLRNQQQQQQQQQQQ [GAL11] | 2.98 ± 0.095 | 2.92 ± 0.11 | 2.92 ± 0.094 | 3.04 ± 0.065 |
| LQYGWKVERHIMDNDPV [RPO21] | 1.19 ± 0.069 | 1.21 ± 0.12 | 1.37 ± 0.19 | 1.24 ± 0.098 |
